Laboratory results taken from the DeepSol protein solubility set.

experiment: soluble on expression in E. coli; label from the status in PepcDB or PDB records

Sequence | soluble on expression in E. coli
SVIRELNKNWQSHAFDGFEVNWTEQQQMVSCLYTLGYPPAQAQGLHVTSISWNSTGSVVACAYGRLDHGDWSTLKSFVCAWNLDRRDLRPQQPSAVVEVPSAVLCLAFHPTQPSHVAGGLYSGEVLVWDLSRLEDPLLWRTGLTDDTHTDPVSQVVWLPEPGHSHRFQVLSVATDGKVLLWQGIGVGQLQLTEGFALVMQQLPRSTKLKKHPRGETEVGATAVAFSSFDPRLFILGTEGGFPLKCSLAAGEAALTRMPSSVPLRAPAQFTFSPHGGPIYSVSCSPFHRNLFLSAGTDGHVHLYSMLQAPPLTSLQLSLKYLFAVRWSPVRPLVFAAASGKGDVQLFDLQKSSQKPTVLIKQTQDESPVYCLEFNSQQTQLLAAGDAQGTVKVWQLSTEFTEQGPREAEDLDCLAAEVAA | soluble
MSLIRANAGDWKKYTFELTPDKTDENARLAIYLEEKGRIQVDMVTLMNGADRQFCGLPLRNDIGQAMVDQGLRFLRYGGTMVNAPEYRFKKMIGDRAERPPYKGHWYTYSTNGFGIEDFLHFCEKAGFMPAYAVNVEESAQDMADMIEYLNGSVDTKWGKKRAENGHPEPYGLKYLEIGNEEVIWGDIEADYQHYIDRFNDIYEAVHAKDPEVQFIHSAWWRPESPNMEKVFKALDGKAAYWDYHPWTDDLGSHVNIDRELTDMKAKFLKWNPKTSMRCAIFEENGNLHNVQRAIVHATVQNVVRRHGDFILTTCAANALQPYLQNDNGWDQGQIFFTSGQVWGMPTFYAQQMSSAHHHPLRLWSETVGELDMTATTNEARDEVILHVVNTSSEVRETQVSLSGFIPKGNMEIYTLSGELNDENLPDTPTWILPKATWKQAPGSDFTYSFPGYSYTIVVLKEGHHHHHH | not soluble
GPGSMSKSRRDVNKVQIGYHRAENTETVSSPHTYAYSSGKSAPSTTKPDRPTVSNIRIASAVAGLPPSRFAANASVKREKNDEESESPTAAASSVSSSLLHGAASEARTTVDGFPWSTRRVERMSFEMQNVSPPIANLLRRVLTTEVPTLAFDRVLIEENDSPVLDELLSHRLGLVPVAGPVMKMHYITESNQASFSNLDPSRVLLFELDATGAKDAAVTPVYSGQLQWVPLPGQDKTAGAVAVACQAGREECAGAAGATDHSADEDDDAVFLVHPDILLTKLGPGQRIKLKAIAVKGFGAVHAKWSPVSACYYEMKTSVELCERLTGSAAEALIKSCPAGVFGYEGGQRGAAATVVAPEKCTLCRECLRSEDKGAEAAANKGDRVRVQKDKTHVLFHIESVGQLHPAQILRFGLRLFAERCRALAEMVQSTEVHVVDASAKSLEL | not soluble
MGSDKIHHHHHHMRLNLRQIEVFRAIMLTGSISGAAKLLHVSQPAVSRLISYAEQRLGLALFERIKGRLYPTPEAQRLFVEVNAVYQGVQRVNEIAEDLIENRMGHLRIACSPNLGQSLLPRAIAAFYERLPDVRIILHTMIPNVLLQAVLTQQVELGIAFLQDTHPNVESQLLYENRMVAAVPASHPFARRKTLAVRDLANQPLIGYGSDIPLGQLVRRLFSDESLVPQVKVEVQQAHVACALAQAGTGIALIDELTVAGPVWPQIVVKPIVPTLAAPVSVLHPVPTPLSRLAHAFIDTLHSLAAHA | not soluble
MGSDKIHHHHHHMGDNLILSFRPDLQIKEEAGKIYLQSPVRSLVCQRVSRGLRQLMKTLTTGSGSEDFLSEPVFKEDGAGEVAKFYYHLQQFIERGFISYNVMMEQEILAIYTPFSAAPLYNEKLFKQKQRYRLSRFTYSRRDGQEIILESPLANGRVVLTHWLAAAVLHLLAEACTAGEISMQFPALPKKSLQLFLELLLSAGMLEEVDDAGISAGEGDEVLQQWEFHDLLFHARSRLGPHEQPVGGTYRFWGRIAPLPAVKNPMSGERIKLYRPDMEKLREDDYPFSLVLEERKSIRDYADEPISVQQLGEFLYRSARIKELIKANPPAGLLYEASYRPYPGGGAAYELEIYLAVNECEGLPGGLYHYDPWQHELEKLTTRTSEVEGLLKYCSNAAGLKELPPVSLHITARFQRVAWKYQSLTYSVILKDVGALCQTLYLVATAMDLAPTAIGSGPAKLLCRIAGLNYLQESAVGEFILGNKRI | not soluble
MNEIKTSCASTDRKWSTWESIDWNKCVIAVNKLQARIVKAQKAGKHGRVKSLQWVLTHSFYAKALAVKRVTSNSGSDTAGVDKVKWSTPNARFKAIGELKRRGYKPQPLKRVNIKKSNGKLRPLGIPTMKDRAMQALYLLALEPVSETTADSNSYGFRKERSTGDAREQCFCVLAKKASPEWIMEGDIQGCFDHISHEWLLNNIPMDKVMLRKWLKCGFVFNKELFPTEEGTPQGGIISPTLANMTLDGLQTMLAEKYHKKFVTRKTTTYYPKVHLVRYADDFIITGRNKEALEEIKPLVVDFLKERGLTLSEEKTKITHIDDGFDFLGYNIRKYKGVLLIKPSQKSLKKFMQKIRGIIDSNKGSKQESLIRLLNPVITGWVNYYKNCVASDTFRKADYLIFEKLWQWATRRHPKKGKYWIADRYFTRVKNRNWCFVANFKKGKTDDRIALKRLYDTKITRYVKVKGEANPFAPEWTEYFEKRKTYKMLQSLNGRKSLLYMWERQNHLCPVCGKPIDKEHPWGTSQQTVNGKKVNNLLHDSCRRKVIQTNKM | not soluble
MSLTLTEVAEFVGVSAMTVSRALRMPEKVNPELRDRIDAAVSQLGYVPNLQARNLASVHSDLILAVVPTFSSPGFLPVSEALQKVLTERGYTMMFMESGHDGQSEQKTFEKMLAYNPAAIIQFNIDTIESCTQLLANVDVPILEIGALNTHPVGMCIGVDYGKAVKQIVTHLADASLKNIALLCTPANNTMFRQLLSGWNTAMLALNRSPHRVVTTHLPSTIATGVNIFKDMMITWGDLDALICTSDEMACGCMMACHSAGIKVPNTVAIASLGGGVLSTVCSPALTTVEFPWHDIGVKAGKALLELLNDKPGEKFIEIPSVLKVRASTAEGHHHHHH | soluble
MMDRVCRLSLAALLAGSGAAYADGSTLTVAYYGGNWGEAFDACVAQPFTEKTGIRVVAEIGNSTTTLAKLQQQSGDAVIDVAYMDGGISELAQEAGVLAPIDLAAIPNAASYLPQAVYKAGDEVFAVSAGYYSLGLIYNTSEVTETPDTWLSLWDESYAGAVALPSPSNSSGVPFVLFLARSVLGDTSESLDPTFAKLKELDTGLLFDSSGAASNAFQSSEVIIGAHFNVGAWDLTDGGLPIGFSVPKEGVWATDARMHVVKGTKNPEGAAQYLDMAASPEAAACLAERLYLGPPVTGVTLAPDVERKLPWGEGGSVEKLHLSDWTEVNARRAAIVERWNREIAN | not soluble
QAAPSQVVVIRQERAGQTSVSLLWQEPEQPNGIILEYEIKYYEKDKEMQSYSTLKAVTTRATVSGLKPGTRYVFQVRARTSAGCGRFSQAMEVETGKP | soluble
GPGSMFHNSYQAGFLSILYSIGSKPLQIWDSQVRNGHVKRITDEDIQSSVLEIMGSNVSTCYIVCPANPKQTLGIKLPFLVMIIKNMKKYFSFEVTILDDKNMRRRFRASNYQSTTKVKPFICTMPMRLDEGWNQIQFNLSDFTRRAYGTNYVETLRVQVHANCRIRRLYFSDRLYAEEELPPEFKLFLPIAQQPPAAAAAEQRDIEAADVPQAASAAQ | soluble
MSLRNKLQQAKRIVIKVGTSSLIYPNGNINLKAIDQLAFTLSDLSNQGKEIILVSSGAIGVGLNKLNLSVRPTTIPEQQAVAAVGQAELMNIYNQRFSTYSQQMAQVLLTRDVIEYPESRNNVTNTFEQLLKMNIIPIVNENDTVAIEELDHLTKFGDNDQLSAIVCQIVQADLLVMLSDIDGFFSDNPTVNKEATLFSEINEINEDLFQLAGGKGSRFGTGGMSSKLKAAERVLANQQAMILANGKQPKIIFEILEGKDIGTLFIKGGHESDEGHHHHHH | soluble
